The values below come from the supplement of paper PMC9112550, “Optimization of the antimicrobial peptide Bac7 by deep mutational scanning” (BMC Biology, 2022).
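Note: peptides expressed intracellularly from a pBAD plasmid library in pooled LB shake-flask culture, induced with 0.3% L-arabinose, DNA abundance read by NGS, three biological replicates, DESeq2 with apeglm shrinkage.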

The series deals with Escherichia coli TOP10. Nature of the series: shrunken log2 fold change of peptide-encoding DNA abundance (4.5 h post-induction vs induction); higher = less antimicrobial activity (less host growth inhibition). The settings on record: time post-induction: 4.5 h; library: site-saturation at positions 5, 18, 19, 20.
Regarding RRIRFRPPRLPRPRPRPKALPRP, the “shrunken log2 fold change” value was 0.191.
Regarding RRIRERPPRLPRPRPRPFCIPRP, the “shrunken log2 fold change” value is -0.346.
In the case of RRIRARPPRLPRPRPRPEKPPRP, the “shrunken log2 fold change” value was 0.64.
RRIRIRPPRLPRPRPRPDRFPRP: the “shrunken log2 fold change” value was 0.0544.
Turning to RRIRGRPPRLPRPRPRPWFNPRP, the “shrunken log2 fold change” value was -0.18.
Turning to RRIRLRPPRLPRPRPRPMRRPRP, the “shrunken log2 fold change” value stood at 0.412.
As to RRIRFRPPRLPRPRPRPWYEPRP, the “shrunken log2 fold change” value was -0.0991.
For RRIRLRPPRLPRPRPRPLLDPRP, the “shrunken log2 fold change” value was 0.3.
As for RRIRVRPPRLPRPRPRPTVFPRP, the figure is -0.0187.
Consider RRIRPRPPRLPRPRPRPDYWPRP, for which the “shrunken log2 fold change” value came out at 0.207.
For the sequence RRIRARPPRLPRPRPRPATGPRP, the “shrunken log2 fold change” value is 0.318.
As for RRIRMRPPRLPRPRPRPIVEPRP, the “shrunken log2 fold change” value turned out to be 0.456.
Take RRIRVRPPRLPRPRPRPALCPRP: the “shrunken log2 fold change” value is 0.555.
Take RRIRKRPPRLPRPRPRPRHLPRP: the “shrunken log2 fold change” value was 0.218.
RRIRGRPPRLPRPRPRPHFTPRP: the “shrunken log2 fold change” value is 0.233.
RRIRFRPPRLPRPRPRPKDYPRP: the “shrunken log2 fold change” value is -0.788.
Turning to RRIRPRPPRLPRPRPRPRTHPRP, the “shrunken log2 fold change” value stood at 0.107.
As for RRIRKRPPRLPRPRPRPPGPPRP, the figure is 1.04; as for RRIRHRPPRLPRPRPRPILFPRP, -0.148.
Consider RRIRVRPPRLPRPRPRPKSIPRP, for which the “shrunken log2 fold change” value is -0.172.
As for RRIRGRPPRLPRPRPRPPYTPRP, the figure is 0.145; as for RRIRCRPPRLPRPRPRPMPEPRP, 0.122; as for RRIRPRPPRLPRPRPRPRFTPRP, 0.116.
On to RRIRHRPPRLPRPRPRPAVSPRP, for which the “shrunken log2 fold change” value is -0.378.
RRIRKRPPRLPRPRPRPWRCPRP: the “shrunken log2 fold change” value is -0.0463.
Consider RRIRQRPPRLPRPRPRPVIDPRP, for which the “shrunken log2 fold change” value is -0.016.
Take RRIRERPPRLPRPRPRPQWLPRP: the “shrunken log2 fold change” value is -0.168.
As for RRIRWRPPRLPRPRPRPCWNPRP, the “shrunken log2 fold change” value was 0.11.
RRIRHRPPRLPRPRPRPVAMPRP: the “shrunken log2 fold change” value was -0.123.
For RRIRLRPPRLPRPRPRPNTLPRP, the “shrunken log2 fold change” value was -0.136.
Consider RRIRRRPPRLPRPRPRPKKLPRP, for which the “shrunken log2 fold change” value came to 0.166.
Turning to RRIRCRPPRLPRPRPRPNPLPRP, the “shrunken log2 fold change” value is -0.131.
With RRIRERPPRLPRPRPRPENEPRP, the “shrunken log2 fold change” value is -0.0522.
With RRIRFRPPRLPRPRPRPAFKPRP, the “shrunken log2 fold change” value is -0.347.
For the sequence RRIRKRPPRLPRPRPRPMYTPRP, the “shrunken log2 fold change” value is -0.0983.
On to RRIRHRPPRLPRPRPRPKKHPRP, for which the “shrunken log2 fold change” value was -0.324.
As for RRIRCRPPRLPRPRPRPQAMPRP, the “shrunken log2 fold change” value was found to be 0.189.
As for RRIRWRPPRLPRPRPRPSCFPRP, the figure is 0.486; as for RRIRKRPPRLPRPRPRPNQCPRP, 0.0387.
With RRIRVRPPRLPRPRPRPRCIPRP, the “shrunken log2 fold change” value is -0.661.
Under RRIRQRPPRLPRPRPRPKDFPRP stands -0.00088.
Under RRIRARPPRLPRPRPRPPDRPRP stands 0.853; under RRIRMRPPRLPRPRPRPYGNPRP, 0.081.
Turning to RRIRQRPPRLPRPRPRPDNWPRP, the “shrunken log2 fold change” value is -0.117.
In the case of RRIRMRPPRLPRPRPRPHFVPRP, the “shrunken log2 fold change” value is -0.025.
For RRIRGRPPRLPRPRPRPGTSPRP, the “shrunken log2 fold change” value amounted to 0.278.
RRIRQRPPRLPRPRPRPVLAPRP: the “shrunken log2 fold change” value was 0.232.
With RRIRERPPRLPRPRPRPGSNPRP, the “shrunken log2 fold change” value is -0.0638.
Turning to RRIRCRPPRLPRPRPRPGHWPRP, the “shrunken log2 fold change” value was 0.0171.
Take RRIRLRPPRLPRPRPRPCFKPRP: the “shrunken log2 fold change” value was -0.315.
Under RRIRMRPPRLPRPRPRPIWRPRP stands 0.128.
Consider RRIRIRPPRLPRPRPRPWSNPRP, for which the “shrunken log2 fold change” value was -0.0121.
On to RRIRYRPPRLPRPRPRPHNWPRP, for which the “shrunken log2 fold change” value is -0.926.
Turning to RRIRARPPRLPRPRPRPKFTPRP, the “shrunken log2 fold change” value was 0.00836.
As for RRIRTRPPRLPRPRPRPQFEPRP, the figure is 0.0219; as for RRIRYRPPRLPRPRPRPQGKPRP, -0.00664.
Under RRIRLRPPRLPRPRPRPYYQPRP stands -0.0534; under RRIRGRPPRLPRPRPRPRESPRP, 1.26; under RRIRPRPPRLPRPRPRPNTDPRP, -0.374.
Under RRIRSRPPRLPRPRPRPKQSPRP stands 0.328; under RRIRRRPPRLPRPRPRPVAFPRP, 0.383.
In the case of RRIRMRPPRLPRPRPRPYCIPRP, the “shrunken log2 fold change” value stood at 0.0786.
With RRIRCRPPRLPRPRPRPTPPPRP, the “shrunken log2 fold change” value came to 0.807.
